In article PMC5578738:
pKd: −log10 of the molar value.

Columns and labels:
[1] = target: Side-VI (CG34114) complete ectodomain, biotinylated (SPR) (Drosophila melanogaster) (UniProt Q0KI85); assay: SPR; Biacore T100; biotinylated Side-VI captured on an SA chip, Beat-Va or Beat-Vb flowed over; HBSp+ with 500 mM NaCl and 15% glycerol; equilibrium responses fitted to a Langmuir isotherm
[2] = target: Beat-VI complete ectodomain, biotinylated (SPR) (Drosophila melanogaster) (UniProt Q9VAV8); assay: SPR; Biacore 3000; biotinylated Beat-VI or Beat-Ic captured on an SA chip, Side-II or Side-III fragments flowed over; HBSp+ and 1% (w/v) BSA; equilibrium fit, three titration series
[3] = target: Beat-Ic complete ectodomain, biotinylated (SPR) (Drosophila melanogaster) (UniProt Q7JUP9); assay: as above
Chain of Beat-Ic complete ectodomain, biotinylated (SPR) (Drosophila melanogaster) (Q7JUP9 entry or part of it): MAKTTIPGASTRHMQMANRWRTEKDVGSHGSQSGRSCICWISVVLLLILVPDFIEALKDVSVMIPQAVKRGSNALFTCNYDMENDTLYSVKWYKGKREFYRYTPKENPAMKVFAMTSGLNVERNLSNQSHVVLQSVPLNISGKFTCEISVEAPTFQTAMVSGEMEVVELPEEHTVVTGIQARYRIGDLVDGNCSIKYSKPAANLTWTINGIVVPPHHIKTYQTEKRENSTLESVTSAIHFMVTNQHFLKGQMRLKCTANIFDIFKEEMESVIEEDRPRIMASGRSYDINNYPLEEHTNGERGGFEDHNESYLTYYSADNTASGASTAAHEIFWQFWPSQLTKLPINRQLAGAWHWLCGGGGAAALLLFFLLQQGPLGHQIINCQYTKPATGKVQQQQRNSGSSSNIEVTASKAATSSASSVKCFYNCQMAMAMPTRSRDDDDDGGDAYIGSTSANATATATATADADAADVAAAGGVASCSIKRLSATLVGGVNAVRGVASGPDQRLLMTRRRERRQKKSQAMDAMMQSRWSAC

Chain of Side-VI (CG34114) complete ectodomain, biotinylated (SPR) (Drosophila melanogaster) (Q0KI85 entry or part of it): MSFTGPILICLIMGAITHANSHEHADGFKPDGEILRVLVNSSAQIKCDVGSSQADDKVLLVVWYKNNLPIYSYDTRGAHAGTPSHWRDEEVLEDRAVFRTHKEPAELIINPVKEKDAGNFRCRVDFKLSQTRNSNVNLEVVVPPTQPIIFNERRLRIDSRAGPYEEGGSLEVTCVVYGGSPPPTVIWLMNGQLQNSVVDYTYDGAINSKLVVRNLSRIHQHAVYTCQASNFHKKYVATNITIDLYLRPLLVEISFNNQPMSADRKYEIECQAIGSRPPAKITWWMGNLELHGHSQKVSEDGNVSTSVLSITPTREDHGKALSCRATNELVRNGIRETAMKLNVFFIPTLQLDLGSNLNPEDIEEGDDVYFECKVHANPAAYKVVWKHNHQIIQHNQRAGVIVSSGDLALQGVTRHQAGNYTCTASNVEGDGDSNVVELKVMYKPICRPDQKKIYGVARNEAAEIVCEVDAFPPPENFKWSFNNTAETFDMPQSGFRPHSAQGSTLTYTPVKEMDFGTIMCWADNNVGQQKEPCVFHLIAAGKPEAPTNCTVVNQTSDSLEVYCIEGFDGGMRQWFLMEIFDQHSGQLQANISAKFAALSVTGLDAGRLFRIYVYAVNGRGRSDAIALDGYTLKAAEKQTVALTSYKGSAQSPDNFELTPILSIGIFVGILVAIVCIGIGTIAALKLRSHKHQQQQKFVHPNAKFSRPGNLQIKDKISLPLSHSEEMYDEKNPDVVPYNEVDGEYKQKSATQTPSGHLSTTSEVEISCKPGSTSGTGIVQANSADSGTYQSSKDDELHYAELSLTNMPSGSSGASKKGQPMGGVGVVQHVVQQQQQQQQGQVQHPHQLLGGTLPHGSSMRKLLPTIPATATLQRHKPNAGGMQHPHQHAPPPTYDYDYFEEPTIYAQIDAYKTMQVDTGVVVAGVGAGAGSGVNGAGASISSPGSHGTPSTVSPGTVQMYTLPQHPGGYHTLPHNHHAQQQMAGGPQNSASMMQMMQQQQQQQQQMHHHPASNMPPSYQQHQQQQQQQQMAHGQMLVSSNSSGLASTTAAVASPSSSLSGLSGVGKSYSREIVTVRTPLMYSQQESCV
Chain of Beat-VI complete ectodomain, biotinylated (SPR) (Drosophila melanogaster) (Q9VAV8 entry or part of it): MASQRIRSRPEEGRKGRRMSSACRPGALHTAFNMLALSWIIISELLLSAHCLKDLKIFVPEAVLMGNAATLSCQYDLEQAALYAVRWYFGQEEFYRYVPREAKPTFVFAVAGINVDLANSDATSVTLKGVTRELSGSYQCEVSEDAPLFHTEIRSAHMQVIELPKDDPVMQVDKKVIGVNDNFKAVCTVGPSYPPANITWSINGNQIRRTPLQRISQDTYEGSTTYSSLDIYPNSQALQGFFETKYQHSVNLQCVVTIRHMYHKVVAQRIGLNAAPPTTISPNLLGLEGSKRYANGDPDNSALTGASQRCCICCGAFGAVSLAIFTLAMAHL

With “Beat-Vb complete ectodomain (SPR) (from UniProt Q9VG19 1-328) (domain or fragment)” the pKd [1] was 5.64 and the koff [1] was greater than 0.5 s⁻¹.

Substance “Side-II N-terminal single IgSF domain (SPR) (from UniProt Q59DZ1 1-1064) (domain or fragment)” has a pKd [2] of 5.56.

With “Side-III N-terminal single IgSF domain (SPR) (domain or fragment)” the pKd [3] was 4.20.
